# Laboratory results as given in PMC12305717.
# Assays:
# [1] = biological target: Ssa1 (yeast cytosolic Hsp70) (yeast) (UniProt P10591)
# [2] = biological target: Ssa1 (yeast cytosolic Hsp70) (yeast) (UniProt P10591); remark: listed apart in the source
# [3] = biological target: DnaK (E. coli Hsp70) (E. coli) (UniProt P0A6Y8)
# Sequence of DnaK (E. coli Hsp70) (E. coli) (P0A6Y8 whole entry): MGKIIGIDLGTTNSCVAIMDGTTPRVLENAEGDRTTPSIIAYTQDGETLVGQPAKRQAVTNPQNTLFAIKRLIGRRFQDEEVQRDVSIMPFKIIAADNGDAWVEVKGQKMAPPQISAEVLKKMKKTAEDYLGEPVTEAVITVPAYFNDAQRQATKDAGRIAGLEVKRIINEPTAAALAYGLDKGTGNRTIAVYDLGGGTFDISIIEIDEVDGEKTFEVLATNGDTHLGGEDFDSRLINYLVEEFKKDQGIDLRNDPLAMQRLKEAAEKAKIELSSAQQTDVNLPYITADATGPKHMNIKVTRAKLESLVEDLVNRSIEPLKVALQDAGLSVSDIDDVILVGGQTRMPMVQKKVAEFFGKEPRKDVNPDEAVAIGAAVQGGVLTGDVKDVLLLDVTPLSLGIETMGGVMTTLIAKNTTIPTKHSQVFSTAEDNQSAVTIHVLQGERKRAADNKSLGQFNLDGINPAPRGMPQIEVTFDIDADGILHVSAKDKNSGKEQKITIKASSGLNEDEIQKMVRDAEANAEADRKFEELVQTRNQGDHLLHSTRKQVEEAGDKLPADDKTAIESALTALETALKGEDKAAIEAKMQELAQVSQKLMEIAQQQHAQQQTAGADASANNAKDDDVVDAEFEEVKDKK
# Sequence of Ssa1 (yeast cytosolic Hsp70) (yeast) (P10591 whole entry): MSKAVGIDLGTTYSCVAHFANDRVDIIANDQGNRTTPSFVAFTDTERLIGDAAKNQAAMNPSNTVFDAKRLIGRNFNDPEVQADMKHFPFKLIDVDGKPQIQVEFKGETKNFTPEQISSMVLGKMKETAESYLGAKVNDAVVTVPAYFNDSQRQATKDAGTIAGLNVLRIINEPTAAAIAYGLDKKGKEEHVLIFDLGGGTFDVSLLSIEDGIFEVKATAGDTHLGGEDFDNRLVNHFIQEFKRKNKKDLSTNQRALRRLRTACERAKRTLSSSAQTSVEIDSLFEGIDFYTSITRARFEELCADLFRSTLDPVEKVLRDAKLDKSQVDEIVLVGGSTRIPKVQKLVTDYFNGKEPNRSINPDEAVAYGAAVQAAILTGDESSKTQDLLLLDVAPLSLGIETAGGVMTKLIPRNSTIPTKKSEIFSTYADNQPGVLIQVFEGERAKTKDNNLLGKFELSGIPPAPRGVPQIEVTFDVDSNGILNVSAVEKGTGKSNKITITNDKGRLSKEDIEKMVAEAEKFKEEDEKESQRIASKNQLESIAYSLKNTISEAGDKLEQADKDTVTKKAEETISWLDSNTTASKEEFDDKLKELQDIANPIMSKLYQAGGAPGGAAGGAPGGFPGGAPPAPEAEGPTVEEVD
binder,measurement,setting,value
"Sse1 (yeast Hsp110), wild type (natural protein) MSTPFGLDLGNNNSVLAVARNRGIDIVVNEVSNRSTPSVVGFGPKNRYLGETGKNKQTSNIKNTVANLKRIIGLDYHHPDFEQESKHFTSKLVELDDKKTGAEVRFAGEKHVFSATQLAAMFIDKVKDTVKQDTKANITDVCIAVPPWYTEEQRYNIADAARIAGLNPVRIVNDVTAAGVSYGIFKTDLPEGEEKPRIVAFVDIGHSSYTCSIMAFKKGQLKVLGTACDKHFGGRDFDLAITEHFADEFKTKYKIDIRENPKAYNRILTAAEKLKKVLSANTNAPFSVESVMNDVDVSSQLSREELEELVKPLLERVTEPVTKALAQAKLSAEEVDFVEIIGGTTRIPTLKQSISEAFGKPLSTTLNQDEAIAKGAAFICAIHSPTLRVRPFKFEDIHPYSVSYSWDKQVEDEDHMEVFPAGSSFPSTKLITLNRTGDFSMAASYTDITQLPPNTPEQIANWEITGVQLPEGQDSVPVKLKLRCDPSGLHTIEEAYTIEDIEVEEPIPLPEDAPEDAEQEFKKVTKTVKKDDLTIVAHTFGLDAKKLNELIEKENEMLAQDKLVAETEDRKNTLEEYIYTLRGKLEEEYAPFASDAEKTKLQGMLNKAEEWLYDEGFDSIKAKYIAKYEELASLGNIIRGRYLAKEEEKKQAIRSKQEASQMAAMAEKLAAQRKAEAEKKEEKKDTEGDVDMD",EC50 of Sse1 for raising the yields of disaggregation and refolding (luciferase activity after 2 h) of pre-aggregated MlucV or luciferase by 4000 nM Ssa1 + 1000 nM Sis1 with ATP,[1],100 nM
same,IC50 of excess Sse1 (above 250 nM) for inhibiting the disaggregation and refolding reaction of 4000 nM Ssa1 + 1000 nM Sis1; complete inhibition at equimolar Sse1 and Ssa1,[1],1200 nM
same,optimal concentration of WT Sse1 for activating the disaggregation/refolding of pre-aggregated luciferase by 6000 nM Ssa1 + 1000 nM Sis1,[2],600 nM
GrpE (E. coli nucleotide exchange factor) (natural protein) MSSKEQKTPEGQAPEEIIMDQHEEIEAVEPEASAEQVDPRDEKVANLEAQLAEAQTRERDGILRVKAEMENLRRRTELDIEKAHKFALEKFINELLPVIDSLDRALEVADKANPDMSAMVEGIELTLKSMLDVVRKFGVEVIAETNVPLDPNVHQAIAMVESDDVAPGNVLGIMQKGYTLNGRTIRAAMVTVAKAKA,EC50 of GrpE for raising the yields of disaggregation and refolding of pre-aggregated MlucV by 4000 nM DnaK + 1000 nM DnaJ,[3],200 nM
Sse1-K69M (natural protein) MSTPFGLDLGNNNSVLAVARNRGIDIVVNEVSNRSTPSVVGFGPKNRYLGETGKNKQTSNIKNTVANLMRIIGLDYHHPDFEQESKHFTSKLVELDDKKTGAEVRFAGEKHVFSATQLAAMFIDKVKDTVKQDTKANITDVCIAVPPWYTEEQRYNIADAARIAGLNPVRIVNDVTAAGVSYGIFKTDLPEGEEKPRIVAFVDIGHSSYTCSIMAFKKGQLKVLGTACDKHFGGRDFDLAITEHFADEFKTKYKIDIRENPKAYNRILTAAEKLKKVLSANTNAPFSVESVMNDVDVSSQLSREELEELVKPLLERVTEPVTKALAQAKLSAEEVDFVEIIGGTTRIPTLKQSISEAFGKPLSTTLNQDEAIAKGAAFICAIHSPTLRVRPFKFEDIHPYSVSYSWDKQVEDEDHMEVFPAGSSFPSTKLITLNRTGDFSMAASYTDITQLPPNTPEQIANWEITGVQLPEGQDSVPVKLKLRCDPSGLHTIEEAYTIEDIEVEEPIPLPEDAPEDAEQEFKKVTKTVKKDDLTIVAHTFGLDAKKLNELIEKENEMLAQDKLVAETEDRKNTLEEYIYTLRGKLEEEYAPFASDAEKTKLQGMLNKAEEWLYDEGFDSIKAKYIAKYEELASLGNIIRGRYLAKEEEKKQAIRSKQEASQMAAMAEKLAAQRKAEAEKKEEKKDTEGDVDMD,"concentration at which excess Sse1-K69M inhibits the disaggregation/refolding by 6000 nM Ssa1 + 1000 nM Sis1, against WT Sse1 (fold lower than WT Sse1)",[2],4
same,optimal concentration of Sse1-K69M for activating the disaggregation/refolding of pre-aggregated luciferase by 6000 nM Ssa1 + 1000 nM Sis1,[2],200 nM
